{
  "source": "patent US20220153864A1",
  "about": "(Pieris, published 2022)",
  "binders": {"B1": {"name": "fusion protein SEQ ID NOs: 87 and 82 (bispecific antibody, human IgG4 S228P, kappa, F234A L235A)", "heavy": "not shown", "light": "DVVMTQSPLSLPVTPGEPASISCRSSQSLVHSNRNTYLHWYLQKPGQSPQLLIYKVSNRFSGVPDRFSGSGSGTDFTLKISRVEAEDVGVYYCSQNTHVPPTFGQGTKLEIKRTVAAPSVFIFPPSDEQLKSGTASVVCLLNNFYPREAKVQWKVDNALQSGNSQESVTEQDSKDSTYSLSSTLTLSKADYEKHKVYACEVTHQGLSSPVTKSFNRGEC", "notes": "also called exemplary fusion protein"}},
  "key": {"[1]": {"target": "recombinant cynomolgus GPC3 (cyGPC3) (R&D Systems) (cynomolgus, UniProt A0A2K5VK50 24-558)", "assay": "ELISA, cyGPC3 coated", "description": "(§1) Recombinant huGPC3 (R&D Systems) at the concentration of 1 μg/mL in PBS was coated overnight on microtiter plates at 4° C. After five washes with 100 μL PBS-0.05% T (PBS supplemented with 0.05% (v/v) Tween 20), the plates were blocked with 2% BSA (w/v) in PBS-0.1% T (PBS-0.1% T-2% BSA) for 1 h at room temperature. After washing with 100 μL PBS-0.05% T (PBS supplemented with 0.05% (v/v) Tween 20) five times, exemplary fusion proteins (SEQ ID NOs: 87 and […] and CD137Ac1-Fusion 1 to 7) or the GPC3 antibody as include in the fusion proteins (SEQ ID NOs: 81 and 82) at different concentrations were added to the wells and incubated for 1 h at room temperature, followed by another wash step. Bound molecules under study were detected by incubation with 1:5000 diluted anti-human IgG Fc-HRP (Jackson Laboratory) in PBS-0.1% T-2% BSA. After an additional wash step, fluorogenic HRP substrate (QuantaBlu, Thermo) was added to each well and the fluorescence intensity was detected using a fluorescence microplate reader.\nThe same ELISA setup was also employed to determine the binding potency of fusion proteins to cynomolgus GPC3 and huCD137, where recombinant cyGPC3 (R&D Systems) or huCD137-His (recombinant human CD137 with C-terminal polyhistidine tag, R&D Systems) was instead coated on a microtiter plate. The testing agents were similarly titrated and bound agents were detected via anti-NGAL-HRP. […]"}, "[2]": {"target": "T1, human GPC3 expressed on cells (SK-Hep1::huGPC3; HepG2, Hep3B and MKN-45 tumor cells) (human, UniProt P51654 25-554)", "T1 construct": "whole, on cells; also called GPC3-positive tumor cells; human GPC3-expressing cells", "T1 sequence (P51654 25-554 limits assumed)": "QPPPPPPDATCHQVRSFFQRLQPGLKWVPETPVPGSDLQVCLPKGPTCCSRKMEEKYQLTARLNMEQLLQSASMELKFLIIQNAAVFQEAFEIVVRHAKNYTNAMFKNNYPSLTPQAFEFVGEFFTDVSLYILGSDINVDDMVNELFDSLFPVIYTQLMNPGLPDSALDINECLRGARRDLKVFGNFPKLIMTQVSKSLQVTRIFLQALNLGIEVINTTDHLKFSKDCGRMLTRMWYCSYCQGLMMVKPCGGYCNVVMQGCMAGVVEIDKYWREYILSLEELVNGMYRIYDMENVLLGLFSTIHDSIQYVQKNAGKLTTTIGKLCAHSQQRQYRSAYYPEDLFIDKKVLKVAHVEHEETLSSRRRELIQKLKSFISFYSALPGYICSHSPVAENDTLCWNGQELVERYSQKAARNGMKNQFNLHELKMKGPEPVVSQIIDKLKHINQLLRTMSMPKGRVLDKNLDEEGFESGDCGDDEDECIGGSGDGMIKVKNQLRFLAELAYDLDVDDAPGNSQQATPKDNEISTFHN", "assay": "flow cytometry on Hep3B tumor cells (GPC3 positive)", "description": "(§2) 5×10⁴ cells per well were incubated for 1 h in ice-cold PBS containing 5% fetal calf serum (PBS-FCS). A dilution series of the testing molecule were added to the cells and incubated for 1 h on ice. Cells were washed twice with PBS and then incubated with a goat anti-hlgG Alexa647-labeled antibody or goat anti-hlgG Alexa488-labeled antibody for 30 min on ice. Cells were subsequently washed and analyzed using iQue Flow cytometer (Intellicyte Screener). Mean geometric fluorescent signals were plotted and fitted with Graphpad software. The geometric means of the fluorescence intensity were used to calculate EC₅₀ values using a four-parameter logistic regression with bottom fixed to background.\n(§3) For flow cytometric analysis, tumor cell lines with different GPC3 expression levels (high to moderate expression: HepG2>Hep3B>MKN-45) and GPC3 negative cell line NCI-N87 were incubated with an exemplary fusion protein SEQ ID NOs: 87 and 82, the GPC3 antibody or the CD137 specific lipocalin mutein (Fc fusion) as included in the fusion protein (SEQ ID NOs: 81 and 82 and SEQ ID NO: 98, respectively), a reference CD137 antibody SEQ ID NOs: 26 and 27, or an isotype control (SEQ ID NO: 24 and 25), and detected using a fluorescently labeled anti-human IgG antibody as described in Example 6."}, "[3]": {"target": "T2, human CD137 expressed on cells (Flp-In-CHO::huCD137; NFkB-luc2/CD137 Jurkat cells) (human, UniProt Q07011 24-255)", "T2 sequence (Q07011 24-255)": "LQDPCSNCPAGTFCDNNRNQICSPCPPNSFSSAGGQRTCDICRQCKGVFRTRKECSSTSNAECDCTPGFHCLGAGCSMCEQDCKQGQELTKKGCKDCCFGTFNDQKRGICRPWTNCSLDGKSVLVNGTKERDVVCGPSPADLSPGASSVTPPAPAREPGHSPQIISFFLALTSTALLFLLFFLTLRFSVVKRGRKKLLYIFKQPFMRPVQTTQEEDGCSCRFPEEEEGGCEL", "assay": "cell-based or functional assay"}, "[4]": {"target": "T2, human CD137 expressed on cells …", "assay": "flow cytometry on Flp-In-CHO::huCD137 cells, anti-human IgG detection", "description": "For flow cytometric analysis, respective cell lines were incubated with an exemplary fusion protein (SEQ ID NOs: 87 and 82), the GPC3 antibody or the CD137 specific lipocalin mutein (Fc fusion) as included in the fusion protein (SEQ ID NOs: 81 and 82 and SEQ ID NO: 98, respectively), a reference CD137 antibody SEQ ID NOs: 26 and 27, or an isotype control (SEQ ID NOs: 24 and 25) and detected using a fluorescently labeled anti-human IgG antibody in FACS analysis as described in the following:\nas §2"}, "[5]": {"target": "T1, human GPC3 expressed on cells …", "assay": "flow cytometry on HepG2 tumor cells (GPC3 high)", "description": "as §2, §3"}, "[6]": {"target": "T3, recombinant human GPC3 (huGPC3) (R&D Systems) (human, UniProt P51654 25-559)", "T3 construct": "also called biotinylated huGPC3", "T3 sequence (P51654 25-559 limits assumed)": "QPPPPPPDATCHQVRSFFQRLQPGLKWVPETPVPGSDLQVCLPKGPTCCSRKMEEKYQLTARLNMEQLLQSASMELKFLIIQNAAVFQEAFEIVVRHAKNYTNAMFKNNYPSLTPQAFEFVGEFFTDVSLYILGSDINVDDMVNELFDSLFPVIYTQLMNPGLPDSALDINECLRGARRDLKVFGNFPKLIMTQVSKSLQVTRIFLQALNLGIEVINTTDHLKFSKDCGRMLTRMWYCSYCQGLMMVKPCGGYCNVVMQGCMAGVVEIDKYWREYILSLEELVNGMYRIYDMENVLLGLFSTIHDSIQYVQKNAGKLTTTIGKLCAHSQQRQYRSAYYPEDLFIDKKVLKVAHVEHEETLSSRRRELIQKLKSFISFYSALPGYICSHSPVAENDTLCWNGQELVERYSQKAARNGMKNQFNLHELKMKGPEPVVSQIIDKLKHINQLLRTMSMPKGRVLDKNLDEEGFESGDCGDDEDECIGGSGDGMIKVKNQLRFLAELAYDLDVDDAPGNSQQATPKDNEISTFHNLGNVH", "assay": "SPR (Biacore T200), binder captured by anti-human IgG Fc, huGPC3 as analyte, 1:1 model", "description": "The anti-human IgG Fc antibody (GE Healthcare) was immobilized on a CM5 sensor chip using standard amine chemistry: the carboxyl groups on the chip were activated using 1-ethyl-3-(3-dimethylaminopropyl)-carbodiimide (EDC) and N-hydroxysuccinimide (NHS). Subsequently, anti-human IgG Fc antibody solution (GE Healthcare) at a concentration of 25 μg/mL in 10 mM sodium acetate (pH 5.0) was applied at a flow rate of 5 μL/min until an immobilization level of 6000-10000 resonance units (RU) was achieved. Residual non-reacted NHS-esters were blocked by passing a solution of 1M ethanolamine across the surface. The reference channel was treated in an analogous manner. Subsequently, testing fusion proteins (SEQ ID NOs: 87 and 82 and CD137Ac1-Fusion 1) or the GPC3 antibody as included in the fusion protein (SEQ ID NOs: 81 and 82) at 0.2 μg/ml in HBS-EP+ buffer was captured by the anti-human IgG-Fc antibody at the chip surface for 180 s at a flow rate of 10 μL/min. After each capture step, the needle was washed.\nThe binding assay was carried out with a contact time of 180 s, a dissociation time of 900 s, and a flow rate of 30 μL/min. After each injection, the needle was cleaned with 40 mM NaOH+20% isopropanol. All measurements were performed at 25° C. […] Prior to the protein measurements, three startup cycles were performed for conditioning purposes. Data were evaluated with Biacore T200 Evaluation software (v2.0). Double referencing was used and the 1:1 binding model was used to fit the raw data."}, "[7]": {"target": "T3, recombinant human GPC3 (huGPC3) (R&D …)", "assay": "ELISA, huGPC3 coated, detection anti-human IgG Fc-HRP", "description": "as §1\nExemplary results are depicted in FIG. 2A-2D, together with the fit curves resulting from a 1:1 binding sigmoidal fit, where the EC₅₀ value and the maximum signal were free parameters, and the slope was fixed to unity."}},
  "data": [
    {"binder": "B1", "values": [
      {"measurement": "EC50", "setting": "[1]", "result": 0.34, "unit": "nM"},
      {"measurement": "EC50", "setting": "[2]", "result": 7.92, "unit": "nM"},
      {"measurement": "EC50, CD137 Bioassay (NFkB-luc2/CD137 Jurkat cells co-cultured with Hep3B)", "setting": "[3]", "result": 0.78, "unit": "nM"},
      {"measurement": "EC50, CD137 Bioassay (NFkB-luc2/CD137 Jurkat cells co-cultured with HepG2)", "setting": "[3]", "result": 0.38, "unit": "nM"},
      {"measurement": "EC50", "setting": "[4]", "result": 13.1, "unit": "nM"},
      {"measurement": "EC50", "setting": "[5]", "result": 20.6, "unit": "nM"},
      {"measurement": "Kd", "setting": "[6]", "result": 0.657, "unit": "nM"},
      {"measurement": "koff", "setting": "[6]", "result": 0.000269, "unit": "s⁻¹"},
      {"measurement": "kon", "setting": "[6]", "result": 409000, "unit": "M⁻¹ s⁻¹"},
      {"measurement": "EC50", "setting": "[7]", "result": 0.19, "unit": "nM"}
    ]}
  ]
}
